Experimental data published in PMC3572760 (Advances and Applications in Bioinformatics and Chemistry : …, 2013).

Key:
[1] = molecular target: 5-enolpyruvylshikimate-3-phosphate synthase (EPSPS) (Mycobacterium tuberculosis, UniProt P9WPY5); assay: biochemical
[2] = molecular target: T1, 5-enolpyruvylshikimate-3-phosphate synthase (EPSPS) (Escherichia coli, UniProt P0A6D3); type: biochemical
T1 sequence (P0A6D3 1-427): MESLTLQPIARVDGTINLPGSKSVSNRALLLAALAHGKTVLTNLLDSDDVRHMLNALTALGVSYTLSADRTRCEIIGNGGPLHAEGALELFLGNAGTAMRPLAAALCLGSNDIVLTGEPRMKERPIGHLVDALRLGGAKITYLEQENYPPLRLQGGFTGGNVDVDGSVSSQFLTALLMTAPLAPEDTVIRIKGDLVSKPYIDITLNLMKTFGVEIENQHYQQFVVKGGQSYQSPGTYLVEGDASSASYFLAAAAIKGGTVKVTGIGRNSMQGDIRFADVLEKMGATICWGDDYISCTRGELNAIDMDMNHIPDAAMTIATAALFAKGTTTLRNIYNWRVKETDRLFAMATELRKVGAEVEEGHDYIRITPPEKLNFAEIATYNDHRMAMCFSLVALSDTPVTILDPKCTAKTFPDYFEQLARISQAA

C=C(OP(=O)(O)O)C(=O)O = assay: purified protein
[3] = system: O=C(O)C1=C[C@@H](OP(=O)(O)O)[C@@H](O)[C@H](O)C1; assay: purified protein
steady-state kinetics = substrate: C=C(OP(=O)(O)O)C(=O)O; assay: steady-state kinetics; type: biochemical, Escherichia coli; details: PEP/glyphosate-binding pocket

Chain of 5-enolpyruvylshikimate-3-phosphate synthase (EPSPS) (Mycobacterium tuberculosis, UniProt P9WPY5) (P9WPY5 whole entry): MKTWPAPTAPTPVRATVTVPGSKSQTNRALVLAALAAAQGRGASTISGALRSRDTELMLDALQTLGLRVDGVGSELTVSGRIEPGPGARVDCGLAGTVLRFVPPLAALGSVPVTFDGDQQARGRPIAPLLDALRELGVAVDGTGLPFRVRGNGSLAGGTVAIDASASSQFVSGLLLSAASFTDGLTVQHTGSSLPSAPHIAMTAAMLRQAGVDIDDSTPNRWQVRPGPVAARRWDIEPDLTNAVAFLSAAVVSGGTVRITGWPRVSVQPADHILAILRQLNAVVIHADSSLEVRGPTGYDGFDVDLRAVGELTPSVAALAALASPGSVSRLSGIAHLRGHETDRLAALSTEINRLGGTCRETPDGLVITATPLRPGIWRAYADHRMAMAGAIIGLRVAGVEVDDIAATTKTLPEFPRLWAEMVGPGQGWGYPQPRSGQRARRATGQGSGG

O=C(O)CNCP(=O)(O)O [glyphosate, N-phosphonomethyl-glycine]
IC50 [1]: 260 µM
IC50 [2]: 3 µM

5-enolpyruvylshikimate-3-phosphate synthase (EPSPS) (Mycobacterium tuberculosis H37Rv)
Km (C=C(OP(=O)(O)O)C(=O)O): 104 µM
Km [3]: 16 µM

B1: 5-enolpyruvylshikimate-3-phosphate synthase (EPSPS) (Escherichia coli K-12) (protein)
chain: T1 sequence (P0A6D3 1-427)
Km (steady-state kinetics): 52 µM
